Data on 40 sequences can be found in the nanobody polyreactivity screen of Harvey et al. (2022).

The nature of the data set: yeast display, Sf9 membrane polyspecificity reagent, FACS + sequencing; frameworks hold sequencing errors. The essentials: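 Genes from sorted yeast were amplified by colony PCR, read by MiSeq 2 × 250 sequencing and filtered on CDR length. These cells carried a synthetic nanobody library in Saccharomyces cerevisiae BJ5465 and were sorted by FACS into low and high (top ~1%) gates on anti-HA and streptavidin fluorescence. Polyreactivity is labelled according to the gate of origin.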
Consider “QVQLVESGGGLVQAGGSLRLSCAASGFIFGRNTMGWYIQAPGKERELVAAITSGGSTNYADSVKGRFTISRDNAKNTVYLQMNSLKPEDTAVYYCAAEVSTYWTLYDYWGQGTQVTVSS”, for which the “polyreactivity (PSR sort gate)” value is given as “high polyreactivity”.
Turning to “QVQLVESGGGLVQAGGSLRLSCAASGSTFWVNTMGWYRQAPGKERELVAAISSNGGSTYYADSVKGRFTISRDNAKNTVYLQMNSLKPEDTAVYYCATRQSWSDYYLNVDYDYRGQGTQVTVSS”, the “polyreactivity (PSR sort gate)” value is “low polyreactivity”.
Take “QVQLVESGGGLVQAGGSLRLSSAASGSTFGPYAMGWYRQAPGKERELVATITRNGGSTYYADSVKGRFTISRDYAKNTVYLQMNSLKPEETAFYSCNAEGRWSSFTQRMDYWGQGTQVNVSS”: the “polyreactivity (PSR sort gate)” value is “low polyreactivity”.
With “QVQLVESGGGLVQAGGSLRLSCADSGRTFKYYAMGWYRQAPGKARELVAAIRSTGGSKYYADSVKGRFTISRDNAKNTVYLQMNSLKPEDTAVYYCNARRYPRYVFSRYDYWGQGTQVTVSS”, the “polyreactivity (PSR sort gate)” value is reported as “high polyreactivity”.
Next, “QVQLVESGGGLVQAGGSLRLSCAASGRTIRYYTMGWYRQAPGKEREFVAAISSTGGTYYADSVKGRFTISRDNAKNTVYLQMNSLKPEDTAVYYCAATFIQVVVNVQLYDYDYWGQGTQVTVSS”: “low polyreactivity”; “QVQLVESGGGLVQAGGSLRISCAASGRIFNYYDMGWYRQAPGKERELVAAISWRGTSTRYADSVKGRFTISRDNAKNTVYLQMQSLKPEDTAVYYCAADDYARRFSFKYDYWGQGTQVTVSS”: “high polyreactivity”; “QVQLVESGGGLVQAGGSLRLSCAASGSTVAYYAMGWYRQAPGKERELVAAITIDGRTSYADSVKGRFTISRDNAKNTVYLQMNSLKREDTAVYYCARGYFPYGYPWRWGYDRFDYWGQGTQVTVSS”: “low polyreactivity”.
Regarding “QVQLVESGGALVQARGSLRLSSASSGSTFYPNAMGWYIQARGKEREFVAAISFSDGSTYYADSVKGRFTISRDNANNTVYLQMNSPKAEATAVYYCNKGASPDDYDYWGQGTQVTVSS”, the “polyreactivity (PSR sort gate)” value is reported as “low polyreactivity”.
Next, “QVQLVESGGGLVQAGGSLRLSCAASGSIFYRNAMGWYRQAPGKERELVAAISASGGSTYYADSVKGRFTISRDNAKITVYLQMNSLKPEDTAVYYCAVEYRKSRSYAPMGYWGQGTQVTVSS”: “high polyreactivity”.
Turning to “QVQRVESGRGLVQAGGRLRLSCAASGFIFDRNVMGLYRQAPGNERELVAAISSSGGSTYYADSVKGRFTISRDNAKNTVYLQMNSLKPEDTAVYYCNRLAYRNMDYWGQGTQVTVSS”, the “polyreactivity (PSR sort gate)” value is listed as “high polyreactivity”.
For the sequence “QVQLVESGGGLVQAGGSLRLSCAASGFTFGKYTMGWYRQAPGKERELVAAISRSGGSTYYADSVKGRFTISRDIAKNTVYFQMNSLKPEDTAVYYCAVDYTYDMDYWGQGTHVTVSS”, the “polyreactivity (PSR sort gate)” value is reported as “high polyreactivity”.
In the case of “QVQLVESGGGLVQAGGSLRLSCAASGSTLYFNAMGWYRQAPGKERELVATITSGGSTYYADSVKGRFTISRDNAKNTVYFQMNSLKPEDTAVYYCNADFGSYATNGMTPLYDYWGQGTQVTVSS”, the “polyreactivity (PSR sort gate)” value is “high polyreactivity”.
The entry for “QVQLVESGGGLVQAGGSLRLSCAASGLIFRWYAMGWYRQAPGTERELVAAISRRGGTTNYADSVKGRFTISRDNAKNTVYLQMNSLKPEDTAVYYCAADYQSVGGAEYDYWGQCTQVTVSS” is “high polyreactivity”; for “QVQLVESGGGLGQAGGSLRLSCAASGSIFPYYAMGWYRPAPGTERELVASINQSDGTPYYADSVKGRFTISRDNAKNTVYLQMNSLKPEDTAVYYCAADTTLQAFIRYRPIGSYDSWGQGTQVTVSS” it is “low polyreactivity”; for “QVQLVESGGGLVQAGGSLRLSCAPSGSIFPSNVMGWYRQAPGKERELVAAISNTGSTNYADSVKGRFTISRDNAKNTVYLQMNSLKPEDTAVYYCNGDASYGFWSLLDYDYWGQATQVTVSS” it is “low polyreactivity”.
For the sequence “QVQLQESRGGLVQAGGSLRLSCAATGTIFTDRIMGWYLQAPGKERELVAGISPGTSTNYADSVKGRFTISRDNEKNTVYLQMNSLKPEDTAVYYCAADWSTGNTLPYWGQGSQVTVSS”, the “polyreactivity (PSR sort gate)” value is listed as “high polyreactivity”.
As to “QVQLVESGGGLVQAGGSLRLSSAASGSTFTRNGMGWYRQAPGKERELVAVISGSSSSTYYADSVKGRFTISRDNAKNTVYLQMNSLKPEDTAVYYCAARRYYGYAQYYYWGQGTQVTVSS”, the “polyreactivity (PSR sort gate)” value is listed as “high polyreactivity”.
In the case of “QVQLVESGGGLVQAGGSLRLSCAASGRTFHIYAMGWYRQAPGKERELVAAIRGRSGSTYYADSVKGRFTISRDNAKNTVYLQLNSLKPEDTAVYYCAVGRYPYGSARYRFDYWGQGTQVTVSS”, the “polyreactivity (PSR sort gate)” value is “high polyreactivity”.
Regarding “QVQLVESGGGLVQAGGSLRLSCAASGSIFPYAMGWYRQAPGKERELVAVISWSGASTYYADSVKGRFTISRDNAKNTVYLQMNSLKPEDTAVYYCAVYRYYKLVHLYGYDYWGQGTQVTVSS”, the “polyreactivity (PSR sort gate)” value is reported as “high polyreactivity”.
“QVQLVESGGGLVQAGGSLRLSCAASGFILSPNTMGWYRLAPGKERELVAAISSDVSTYADSVKGRFTISRDNAKNTVYLQMYSLKPEDTAVYYCNADDFGYASYESWGQGTQVTVSS”: the “polyreactivity (PSR sort gate)” value is reported as “low polyreactivity”.
Take “QVQLVESGGGVVQAGGSLRLSCAASGSIFAGNAMGGSRQAPGKERELVAAITFSAGRTSYADSVKGRFTISRDNAKNTVYFQMNSLKPEDTAVYYCNALLTVRHVKSDYDYWGQGTQVTVSS”: the “polyreactivity (PSR sort gate)” value is “low polyreactivity”.
Take “QVQLVESGGGLVQAGGSLRLSCAASGSTFRGNAMGWYRQAPGKERELVAGISGSGGRTYYADSVKGRFTISRDNAKNTVYLQMNSLKPEDTAVYYCAARSTVYEYFYYRGWWEYYYWGQGTQVTVSS”: the “polyreactivity (PSR sort gate)” value was “low polyreactivity”.
Next, “HVQLVESGGGLVQAGGSLRLSCAASGSIYHIYSMGRYRQAPGKERELVAAISFSGGSTYYADSVKGRFTISRDNAKNTVYLQMNSLKPEDNAVYYCAADVYWLPYYYWGQGTLVTVSS”: “high polyreactivity”; “QVQLVESWGGLVQAGGSLRISCAASGRISYGYAMGWYRQAPGKERELVAAISRSGGTTYYADSVKGRFTISRDNAKNTVYLQMNSLNPEDTAVYYCAAGDAYYTEALPFGDYDYWGQGTQVTVSS”: “low polyreactivity”; “QVQLVESGGGLVQAGGSLRLSCAASGFTFYQNAMGWYRQAPGKVRELVAAIDRRGGRTYNADSVKGRFTISRDNAKKTVYLQMNSLKPEDTAVYYCNKEKYYTGYDYWGQGTQVTVSS”: “high polyreactivity”.
Regarding “QVQLVESGGGLVQAGGSLRLSCAAYGYTFRGYAMGRYRQAPGKEREFVAAINWSDGSTYYADSVKGRFTISRDNAKNTVYLQMNSLKPEDTAVYYCNADQYYRFPDNYLGQGTQVTVSS”, the “polyreactivity (PSR sort gate)” value is reported as “low polyreactivity”.
Consider “QVQLVESGGGLVQAGGSLRLSCAASGSIFVTYAMGWYRQAPGKERELVAAITWNGGSTYYADSVKGRFTISRDNAKNTVYLQMNSLKPEDTAVYYCAADSRYRGNYWGQGTQVTVSS”, for which the “polyreactivity (PSR sort gate)” value is on record as “high polyreactivity”.
For “QVQLVESGRGLVQAGGSLRLSCAASGITFTGYAMGWYRQAPGKERELVAASTSGGSTTYADSVKGRFTISRDNAKNTVYLQMNSQKPEDTAVYYCGARTADYSTAEYDYWGQGTQLTVSS”, the “polyreactivity (PSR sort gate)” value is “low polyreactivity”.
For “QVQLVESGGGLVHAGGSLRLSCAASGFILTGNAMGWYRQAPGKERELVAAITSGGRTYYADSVKGRFTISRDNAKNTVYLQMNSLKPEETAVYYCAARRRWSQTPFDYWGQGTQVTVSS”, the “polyreactivity (PSR sort gate)” value is given as “high polyreactivity”.
As to “QVQLVESGGGLVHAGGSLRLSCAACGRIFSRNAMGWYRQAPWKERELVAAITWRGGSTYYADSVKGRFTSSRDNAKNTVYLQMNSLKPEDTAVYYCNRDYRQYGYAYSGRFYWGHGTQVTVSS”, the “polyreactivity (PSR sort gate)” value was “high polyreactivity”.
The entry for “QVQLVESGGGLVQAGGSLRLSCAASGSTFYANAMGWYRQAPGKERELVAAITSGGSTNYADSVKGRFTISRDNAKNTVYLQMNSLKPEDTAVYYCATPVNRERHAEDYWGQGTQVTVSS” is “low polyreactivity”; for “QVQLVESGGGLVQAGGSLRLSCAASGSIFEPYAMGLYRQAPGKERELVAAIRWSGGSTYYADSVKGRFTISRDNAKNTVYLQMNSLKPEDTAVYYCAKYFPAGYYYWGQGTQVTVSS” it is “low polyreactivity”; for “QVQLGESGGGLVQAGGSLRLSCAASGSTFTRYGMGWYRQAPGKERELVAAITTSGSSTYYADSVKGRFTISRDNAKNTVYLQMNSLKPEDTAVYYCAADWSSWGFDYWGQGTQVTVSS” it is “low polyreactivity”.
In the case of “QVQLVESGGGLVQAGGSLRLSCAASGITLYRYAMGWYRPAPGKERELVADISSGGGTTYYADSVKGRFTISRDNAKNTVSLQMNSLKPEDTALYYCAADYGFRYPLYDYWGQGTQVTVSS”, the “polyreactivity (PSR sort gate)” value is on record as “low polyreactivity”.
As to “QVQLVESGGGLVQAGGSLRFSCAASGDTFTSYAMGWYRQAPGKERELVAAISRRGGSTYYADSVKGRFTISRDNAKNTVYLQMNSLKPEDTAVYYCAAKSYSYTEFDYWGQGTQVTVSS”, the “polyreactivity (PSR sort gate)” value is given as “high polyreactivity”.
“QVQLVESGVGLDQAGGSLRLSCAASGSIFIINAMGLYRQAPGKERELVARISNGGNTYADSVKGRFTISRDNAKNTVYLQMKSLKPEDTAVYYCAARAYARRPKYVPKFDYWGQGTQVTVSS”: the “polyreactivity (PSR sort gate)” value is recorded as “high polyreactivity”.
Take “QVQLVESGAGLVQAGGSLRLSCASSGYIFDWYAMGWYRQAHGKERELGAAISGRGGSTYYADSVKGRFTISRDNSKNTVYLQMYSLKPEYTAVYYCNAALSPWGYNYWGQGTQVTVSS”: the “polyreactivity (PSR sort gate)” value is “high polyreactivity”.
For the sequence “QVQLVESGGGLVQAGGSLRLSCAASGRTFRIYAMGWYLQAPGKERELVAPISGRGGNTYYADSVKGRFTISRDNAKNTVYLHMNSLKPEDTAVYYCAADDATAYRVDGFKYDYWGQGTLVTVSS”, the “polyreactivity (PSR sort gate)” value is “high polyreactivity”.
For “QVQLVESGGGLVQAGGSLRLTCAASGSTFITYAMGWYRQAPGKERELVAAIRVIGGRTYYADSVKGRFTISRDNAKNTVYLQMNSLKPEDTAVYYCAARPYKSYGYHYSYDYWGQGTQVTVSS”, the “polyreactivity (PSR sort gate)” value is “high polyreactivity”.
Regarding “QVQLVESGGGLVQAGGSLRLSCAASRRTFYEYAMGWYRQAPGKERELVAAITRSGGSTYYADSVKGRFTISRDNAKNTVYLQMNSLKPEDTAVYYCAAYRHQYRVRYYTAYDYWGQGTQVTVSS”, the “polyreactivity (PSR sort gate)” value is on record as “high polyreactivity”.
